In the emibetuzumab library of Makowski et al. (2022):

B1: VH:VL chains; a variant is named by its letters at X, in order (parent)
chain 1: QVQLVQSGAEVKKPGASVKVSCKASGYTFTDYXMHWVRQAPGQGLEWMGXVNPNXXXTTYNQKFEGRVTMTTDTSTSTAYMELRSLRSDDTAVYYCARXNXLDXWGQGTTVTVSS
chain 2: DIQMTQSPSSLSASVGDRVTITCSVSSSVSSIYLHWYQQKPGKAPKLLIYSTSNLASGVPSRFSGSGSGTDFTLTISSLQPEDFATYYCQVYSGYPLTFGGGTKVEIK

Variants of: B1
Assay: yeast display scFab, FACS + sequencing
Summary of the method: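 The non-specific binding call was based on sorted and sequenced yeast displaying a heavy-chain CDR mutant scFab library. Labelling used anti-Myc with biotinylated ovalbumin (260 μg/mL in PBSB, 3 h, room temperature) or soluble membrane proteins (130 μg/mL, 20 min on ice), and FACS collected the top 25% and bottom 10% of binders in two replicates. Positive meant present in ≥3 of 4 pooled positive samples and in no negatives, and negative meant the converse.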

Variant | non-specific binding call
DRGRSDVA | no binding
YRREGSAV | binds
FRRGDAAV | binds
YRGRSSSV | binds
SRKGGDAA | no binding
YRKGSSAA | binds
FRREGSSD | binds
FRGRGYWV | binds
FRGRGYGA | binds
YRGRTAAF | binds
YRGRTAAY | binds
YRGRTAAD | binds
YRGRTAAV | binds
YRGRTAAA | binds
YRKRGSVF | binds
YRKRGSVV | binds
YRKRGDVV | binds
SRGRGYSV | binds
FRRGDAVA | binds
VRRGDAGY | no binding
FRRGDALD | binds
FRKGDASD | binds
YRKGGSAA | binds
VRGRGYAA | binds
YRRGDAGS | binds
YRRGDAGF | binds

Variant | non-specific binding call
YRRGASWD | binds
YRRGDFWA | no binding
YRRGAAAV | binds
YRRGAAAA | binds
VRGRSAWS | no binding
FRKAAVAV | binds
FRKGGSLD | binds
VRGTGYAS | binds
VRGRGYGV | binds
YRKEAAAA | binds
YRKGSSWD | binds
YRGRSAAY | binds
YRGRGVLF | binds
YRGRSSWD | binds
YRGRSSWS | binds
VRGTDAGV | no binding
VRGTGFGA | binds
FRKGGAGS | binds
FRKGGAAA | binds
VRGRGVGY | binds
SRKKGDGS | binds
YRGRGVWV | binds
YRKKTDWS | binds
YRKGASAF | binds
VRKKGVSS | binds
FRGTSFGD chain 1 T58I | binds

Variant | non-specific binding call
VRGTGSGA | binds
YRRESSGY | binds
YRRESSGV | binds
VRGRGVAV | binds
YRRGDDGD | binds
YRKRTFGA | binds
DRRGDASD | no binding
YRGRSASY | binds
YRGRSASS | binds
YRGRSASV | binds
YRRANFLD | binds
FRGRSSLA | binds
YRKGASVD | binds
VRGTGDWD | no binding
VRGTGSWD | binds
FRRGDSAA | binds
YRKGSASD | binds
YRGRGYGA | binds
YRGRGYGF | binds
YRGRGYGS | binds
YRKGSSVD | binds
YRKGSSVS | binds
YRRGASSS | binds
YRKGGSVS | binds
VRRASSVA | binds
ARGRSDVA | no binding

Variant | non-specific binding call
DRRGDSSA | no binding
YRKGSALD | binds
YRRGAAWA | binds
YRKGGAWF | binds
YRKGGAWV | binds
YRKGGAWY | binds
DRREDSSA | no binding
YRKRGAAA | binds
YRKRGAAD | binds
VRRETVSD | binds
YRGRGYWV | binds
YRGRGYWA | binds
YRGRGYWY | binds
DRREGYGA | binds
YRKGDSLD | binds
YRGRGYVS | binds
VRKGGSLD | binds
YRGRGVGA | binds
YRGRGVGD | binds
YRGRGVGF | binds
YRGRGVGS | binds
YRGRGVGY | binds
YRKGTAGD | binds
YRRGASGV | binds
YRKRGSGV | binds
ARRGAYGV | binds

Variant | non-specific binding call
YRKGGFVA | binds
FRGTGSGD | binds
YRRGDSLY | binds
FRGTGFVD | binds
FRGRGYVV | binds
FRGRGYVA | binds
YRRGDSAD | binds
YRKGAASD | binds
YRRGDSWD | binds
YRKGGDLY | no binding
YRGTGAGV | binds
VRGTGVAV | binds
DRKGGDWS | binds
YRRESAGF | binds
FRKRSFSS | binds
VRRAADSD | binds
VRGTGAVY | binds
ARKTGAGA | binds
YRKRGSSA | binds
VRKRGSSS | binds
YRRGDSSA | binds
SRKGAASD | binds
YRGRGYAA | binds
YRGRGYAY | binds
ARKGSSGD | binds
FRKGTALD | binds

Variant | non-specific binding call
FRKRGSAV | binds
SRGRGVLV | binds
YRRAADSD | binds
YRKKSVGA | binds
YRKGSSGV | binds
YRKGSSGA | binds
YRKGSSGD | binds
YRKGSSGF | binds
YRGRSSAA | binds
VRGRSSLF | binds
YRGRSFAV | binds
YRREGDWA | binds
VRRGDSVA | binds
YRKGSAAA | binds
DRREDALD | no binding
YRRGDAAF | binds
YRGRSFGV | binds
YRGRGVSD | binds
YRGRGVSS | binds
VRGRSSGS | binds
YRKRGAGA | binds
YRKRGAGD | binds
DRRANFLY | binds
VRGTGSAD | binds
FRGRSSVA | binds
FRKGSAVD | binds

Variant | non-specific binding call
YRKGSAWD | binds
YRKEGAAA | binds
SRKEGAAY | no binding
DRRGDAVY | no binding
DRRGDAVA | no binding
YRGRSAGA | binds
YRGRSAGY | binds
YRGRSAGV | binds
YRGRSAGS | binds
VRKRGALD | binds
YRRGDSGV | binds
YRKKGDLA | binds
SRGRGYGD | binds
VRGRSSAA | binds
DRRGDDVF | no binding
FRGRSYVD | binds
YRKRGVGV | binds
YRRGAAGD | binds
YRRGDAWD | binds
YRRGDAWY | binds
VRKGSSGD | binds
VRGRSSVV | no binding
DRRGDSLV | no binding
ARGRSDAV | no binding
FRRGDAGD | binds
YRGRGVVD | binds

Variant | non-specific binding call
YRGRGVVY | binds
YRREGAGD | binds
VRGRSDWV | no binding
FRGRGYAV | binds
FRKGGSGV | binds
FRKGGSGD | binds
YRKEAAWV | binds
SRRETFVF | binds
YRGRSALA | binds
YRREGSGV | binds
VRKGGSGV | binds
YRRGDASD | binds
VRKGGVAV | binds
YRKGDSGD | binds
YRKGGSGV | binds
YRKGGSGY | binds
YRKGGSGA | binds
FRGTGSWA | binds
YRKGSSLF | binds
YRGRSAWV | binds
YRGRSAWD | binds
YRGRSAWF | binds
VRRGDVGV | binds
VRRGDFWA | no binding
YRKGDAGD | binds
YRREGSVV | binds

Variant | non-specific binding call
YRKRGSLY | binds
YRKRGSLV | binds
YRKGGSWS | binds
SRGRGVGA | binds
VRRGDSSD | no binding
YRKGSAGD | binds
VRGRSDVF | no binding
YRKRSVVF chain 1 S115F | binds
YRGRSSLY | binds
YRKGGAVV | binds
YRKGGAVD | binds
YRREGSLA | binds
YRREGSLD | binds
YRGRGVAA | binds
YRGRGVAV | binds
YRGRGYSV | binds
ARRGAAGV | binds
YRKGGFSS | binds
FRKRGSVF | binds
DRRGDDGV | no binding
DRRGDDGA | no binding
YRGRTAGV | binds
VRKGGSVY | binds
FRKRGAWY | binds
VRRANFLD | binds
VRGRGVSY | binds

Variant | non-specific binding call
YRGRTSLD | binds
FRGRSSGV | binds
FRGRSSAF | binds
FRGRSSAA | binds
YRKKGALY | binds
VRGTDAVV | no binding
YRKGAAVV | binds
YRKENYGD | binds
YRKGAALA | binds
YRKGGAGF | binds
YRKGGAGS | binds
YRKGGAAV | binds
YRKGGAAY | binds
YRKGGAAS | binds
YRGTGSVD | binds
VRRGDDVY | no binding
YRKESAVY | binds
VRKKGYVY | binds
FRGRGVGA | binds
FRGRGVGD | binds
YRKRGAVD | binds
